{
  "source": "paper PMC7921663",
  "details_in_all_cases": "FA: 50 mM NaCl, 50 mM Tris-HCl pH 8.0, 5 mM DTT, 5 mM MgCl2, room temp, 30 nM FAM substrate, EMSA: 10 mM NaCl, 0.2 mM EDTA, 5 mM b-mercaptoethanol, 0.1% NP-40 …",
  "key": {"PARP1 (human) [1]": {"tested_on": "PARP1 (human)", "assay": "fluorescence anisotropy"}, "PARP2 (mouse) [2]": {"tested_on": "PARP2 (mouse)", "assay": "fluorescence anisotropy"}, "PARP1 (human) [3]": {"tested_on": "PARP1 (human)", "assay": "EMSA"}, "PARP2 (mouse) [4]": {"tested_on": "PARP2 (mouse)", "assay": "EMSA"}, "[5]": {"details": "AP site at the U of primer S1 (UDG-generated)"}, "[6]": {"details": "AP site at the U of primer S1 (UDG-generated), midward-oriented"}, "[7]": {"details": "AP site at the U of primer S3 (UDG-generated)"}, "[8]": {"details": "AP site at the U of primer S3 (UDG-generated), outward-oriented"}, "[9]": {"details": "single-nt gap with 5'-dRP at the U of primer S1 (UDG + APE1)"}, "[10]": {"details": "single-nt gap with 5'-dRP at the U of primer S1 (UDG + APE1), midward-oriented"}, "[11]": {"details": "single-nt gap with 5'-dRP at the U of primer S3 (UDG + APE1)"}, "[12]": {"details": "single-nt gap with 5'-dRP at the U of primer S3 (UDG + APE1), outward-oriented"}},
  "data": [
    {"substance": "AP mid-DNA", "values": [
      {"measurement": "Kd", "setting": "PARP1 (human) [1]; [5]", "result": 0.023, "unit": "µM"},
      {"measurement": "Kd", "setting": "PARP2 (mouse) [2]; [5]", "result": 0.69, "unit": "µM"}
    ]},
    {"substance": "AP mid-NCP", "values": [
      {"measurement": "Kd", "setting": "PARP1 (human) [1]; [6]", "result": 0.012, "unit": "µM"},
      {"measurement": "Kd", "setting": "PARP2 (mouse) [2]; [6]", "result": 0.162, "unit": "µM"}
    ]},
    {"substance": "AP out-DNA", "values": [
      {"measurement": "Kd", "setting": "PARP1 (human) [1]; [7]", "result": 0.023, "unit": "µM"},
      {"measurement": "Kd", "setting": "PARP2 (mouse) [2]; [7]", "result": 0.811, "unit": "µM"}
    ]},
    {"substance": "AP out-NCP", "values": [
      {"measurement": "Kd", "setting": "PARP1 (human) [3]; [8]", "result": 0.061, "unit": "µM"},
      {"measurement": "Kd", "setting": "PARP2 (mouse) [4]; [8]", "result": 0.13, "unit": "µM"},
      {"measurement": "Kd", "setting": "PARP1 (human) [1]; [8]", "result": 0.007, "unit": "µM"},
      {"measurement": "Kd", "setting": "PARP2 (mouse) [2]; [8]", "result": 0.16, "unit": "µM"}
    ]},
    {"substance": "gap mid-DNA", "values": [
      {"measurement": "Kd", "setting": "PARP1 (human) [1]; [9]", "result": 0.025, "unit": "µM"},
      {"measurement": "Kd", "setting": "PARP2 (mouse) [2]; [9]", "result": 0.145, "unit": "µM"}
    ]},
    {"substance": "gap mid-NCP", "values": [
      {"measurement": "Kd", "setting": "PARP1 (human) [1]; [10]", "result": 0.014, "unit": "µM"},
      {"measurement": "Kd", "setting": "PARP2 (mouse) [2]; [10]", "result": 0.128, "unit": "µM"}
    ]},
    {"substance": "gap out-DNA", "values": [
      {"measurement": "Kd", "setting": "PARP1 (human) [1]; [11]", "result": 0.029, "unit": "µM"},
      {"measurement": "Kd", "setting": "PARP2 (mouse) [2]; [11]", "result": 0.058, "unit": "µM"}
    ]},
    {"substance": "gap out-NCP", "values": [
      {"measurement": "Kd", "setting": "PARP1 (human) [3]; [12]", "result": 0.038, "unit": "µM"},
      {"measurement": "Kd", "setting": "PARP2 (mouse) [4]; [12]", "result": 0.057, "unit": "µM"},
      {"measurement": "Kd", "setting": "PARP1 (human) [1]; [12]", "result": 0.01, "unit": "µM"},
      {"measurement": "Kd", "setting": "PARP2 (mouse) [2]; [12]", "result": 0.014, "unit": "µM"}
    ]},
    {"substance": "native mid-DNA", "values": [
      {"measurement": "Kd", "setting": "PARP1 (human) [1]", "result": 0.014, "unit": "µM"},
      {"measurement": "Kd", "setting": "PARP2 (mouse) [2]", "result": 0.608, "unit": "µM"}
    ]},
    {"substance": "native mid-NCP", "values": [
      {"measurement": "Kd", "setting": "PARP1 (human) [1]", "result": 0.011, "unit": "µM"},
      {"measurement": "Kd", "setting": "PARP2 (mouse) [2]", "result": 0.151, "unit": "µM"}
    ]},
    {"substance": "native out-DNA", "values": [
      {"measurement": "Kd", "setting": "PARP1 (human) [1]", "result": 0.014, "unit": "µM"},
      {"measurement": "Kd", "setting": "PARP2 (mouse) [2]", "result": 0.839, "unit": "µM"}
    ]},
    {"substance": "native out-NCP", "values": [
      {"measurement": "Kd", "setting": "PARP1 (human) [3]", "result": 0.065, "unit": "µM"},
      {"measurement": "Kd", "setting": "PARP2 (mouse) [4]", "result": 0.192, "unit": "µM"},
      {"measurement": "Kd", "setting": "PARP1 (human) [1]", "result": 0.014, "unit": "µM"},
      {"measurement": "Kd", "setting": "PARP2 (mouse) [2]", "result": 0.156, "unit": "µM"}
    ]}
  ]
}
